From patent US20050153894 come the findings set out here.

Bounds are passed on as bounds.

Experiment [1] concerns the target cyclin D1 (human), P24385. The experiment in a line: competition. The note with it: modification not given.
The next experiment has as its target cyclin A (human), P20248. The experiment in a line: competition. The note with it: modification not given.

Chain of cyclin D1 (human), P24385 (P24385 whole entry): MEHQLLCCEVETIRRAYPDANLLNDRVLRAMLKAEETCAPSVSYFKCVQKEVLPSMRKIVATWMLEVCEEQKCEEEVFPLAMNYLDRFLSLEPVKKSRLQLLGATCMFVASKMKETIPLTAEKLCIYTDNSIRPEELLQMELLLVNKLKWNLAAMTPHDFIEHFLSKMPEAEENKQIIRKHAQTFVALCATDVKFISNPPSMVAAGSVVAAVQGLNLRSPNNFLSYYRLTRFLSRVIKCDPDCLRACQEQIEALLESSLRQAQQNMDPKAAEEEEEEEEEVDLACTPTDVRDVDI
Chain of cyclin A (human), P20248 (P20248 whole entry): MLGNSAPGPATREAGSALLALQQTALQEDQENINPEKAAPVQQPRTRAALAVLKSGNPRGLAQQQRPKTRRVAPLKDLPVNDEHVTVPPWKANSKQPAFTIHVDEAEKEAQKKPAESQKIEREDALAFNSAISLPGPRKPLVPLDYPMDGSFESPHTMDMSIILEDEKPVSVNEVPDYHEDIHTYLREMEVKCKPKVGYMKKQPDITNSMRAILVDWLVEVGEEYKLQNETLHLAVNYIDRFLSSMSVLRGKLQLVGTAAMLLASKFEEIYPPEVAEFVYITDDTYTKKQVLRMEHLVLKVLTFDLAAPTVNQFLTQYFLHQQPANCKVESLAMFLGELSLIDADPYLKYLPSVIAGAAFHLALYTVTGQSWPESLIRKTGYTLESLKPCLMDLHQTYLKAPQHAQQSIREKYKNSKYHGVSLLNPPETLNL

One may read the IC50 as the concentration that gives 50% inhibition. In experiment [1], HSKRRLDL registered an IC50 greater than 200 µM.

The molecule PVKRRLDL [E2F1 PVKRRLDL] showed a half-maximal inhibitory concentration (IC50) in experiment [1] greater than 100 µM. Regarding HSKRRLFG, in experiment [1], the IC50 is greater than 200 µM. In turn, RRLNF [Ac-RRLNF-NH2] yielded a concentration for half-maximal inhibition (IC50) with cyclin A (human), P20248 of 8.15 µM.
